Among the data in paper PMC9091222 (2022) are EC50 values, retold here.

The target of the assay is unprocessed hMPV PreF trimer (wild-type hMPV F ectodomain trimer, strain B2, C-terminal GCN4 trimerization … (human metapneumovirus, strain B2)). As to the kind of experiment: ELISA.

B1: M4B06 IgG (antibody, V domains shown)
VH: EVQLLESGGGFVQPGGSLRLSCVVTGFTFSNYAMCWVRQAPGKGPEWVSGIGGSVGTTYYADSVKGRFTISRDNSKNTLYLQMSGLRAEDTARYYCAKVPSFFVFEDGFDMWGQGTVVTVSS
VL: QSVLTQPPSASGNPGQRVTISCYGSGSNIGNNYVHWFRQLPGTAPRLLIYNTDILVPGVPDRFSGSESGTSASLAISGLQSGDEADYFCAAWDDTLNGYVFGPGTTVTVL
Molecule B1 had a concentration for a half-maximal effect (EC50) of 4.4 ng/mL.
